This is an account of results in patent US20050227302A1, “Induction of apoptosis via ARTS-IAP complexes” (priority 2004, published 2005).

One assay concerns CIAP. Description: Interaction of ARTS with CIAP. Format: binding.
The subject of another assay is HL-60 cells. In words: Caspase 3 activity assay in ARTS-transfected HL-60 cells. In kind it is cell-based. On the procedure:
(§1) K562 and HL-60 cells were grown in RPMI 1640 medium. A549, COS-7 cells were grown in Dulbecco's modified Eagle medium (DMEM) with 4.5 grams/liter (g/L) D-glucose. All cells were grown at 37° C. in a 5% CO2 atmosphere. All media were supplemented with 10% fetal calf serum (FCS), penicillin (100 U/ml), streptomycin (100 micrograms (μg)/ml) and […] millimolar [mM]) (Biological Industries, Israel). pEF1-AU5 and pEF1-AU5-ARTS constructs were used for all ARTS transient transfection experiments. An AU5 tag was attached to the N' terminus of ARTS as described in ([…] et al, Nat Cell Biol 2: 915-921, 2000). The […] construct was generated by replacing three amino acids ([…]) at the GTP binding site, using site-directed mutagenesis (QuickChangeTM, Stratagene) with the primer: [NT] No: 1). COS-7, K562 and HL-60 cells were transiently transfected using electroporation (EasyjectTM plus-Equibio). A549 cells were transiently transfected using lipofectaminTM (Invitrogen) according to the manufacturer's protocol. The following apoptotic agents were used: TGF-beta (10 ng/ml) for 24 hours in medium containing 1% FCS; […] etoposide for 2 or 16 hours (Sigma); staurosporine (STS) ([…]) for 0-3 hours (Sigma); and arabinoside-c (ara-C, cytosar) (Pharmacia) at […] for 4 hours. In the case of transiently transfected cells, agents were added forty hours after transfections. […]

Assay [1] has as its system COS-7 cells. In words: Immunofluorescence of ARTS and XIAP localization in COS-7 cells. In kind it is cell-based, African Green Monkey. To be noted: apoptotic cells over-expressing ARTS versus not over-expressing. On the procedure: Cells were fixed with 4% paraformaldehyde in PBS for 20 min at room temperature, washed with PBS, permeabilized with 0.5% Triton-X in PBS for 5 min, and incubated with primary antibodies for 2 hours at room temperature (rabbit polyclonal anti-ARTS (1:20,000; Sigma), monoclonal anti-ARTS, and/or monoclonal anti-XIAP (1:500; used in subsequent Examples). Cells were washed three times with PBS/0.1% Triton-X and incubated with FITC conjugated anti-mouse and Rhodamin^TX-conjugated anti-rabbit secondary antibodies (Jackson). Images were analyzed using a confocal laser microscope (Zeiss LSM 510). Mitochondria were visualized with MitoTracker® Red CMXRos (Molecular Probes/Invitrogen).
For caspase inhibition, we added […] of BOC-Asp(Ome)CH2F (Enzyme Systems Products) one hour prior to addition of the apoptotic agents.

The test system of assay [2] is COS-7 cells. Description: Apoptosis assays (TUNEL, anti-H2A.X) in COS-7 cells. To be noted: COS-7 cells stably transfected with an ARTS construct. In kind it is cell-based, African Green Monkey. On the procedure:
Apoptotic cells were detected using the anti-H2A.X antibody (Upstate; Paull, et al., 2000) or TUNEL. For TUNEL assays, COS-7 cells were transiently transfected with AU5-ARTS, AU5-ARTSΔC, AU5-ARTSmGTP and AU5-H5. Twenty-four hours after transfection, the cells were treated with staurosporine (STS) ([…]) for 1 or 3 hours, then fixed and permeabilized. Apoptosis levels were determined using the TUNEL. In situ™ cell death detection TMR kit (Roche) according to the manufacturer's protocol. All slides were coded and experiments were performed in a blind manner.
Stably transfected COS-7 pE-ARTS cells were generated using the pEF1-IRES vector (Hobbs S et al, Biochem Biophys Res Commun 252: 368-372, 1998). The construct contains an EF-1 promoter followed by a multi cloning site, an EMC (Encephalomyocarditis virus) internal ribosome entry sites (IRES), and a puromycin resistance gene. AU5-tagged ARTS was inserted into the XhoI site downstream of the EF-1 promoter. The construct was stably transfected into COS-7 cells. The cells were maintained in medium containing 4 μg/ml puromycin.

For assay [3], the system named is COS-7 cells. Description: Active caspase 3 immunofluorescence staining in ARTS-transfected COS-7 cells. Format: cell-based, African Green Monkey. On the procedure: as §1
The target of assay [4] is T1, Myc epitope-tagged wild-type XIAP (Homo sapiens (Human), UniProt P98170 1-497).
T1 construct: Expressed by transient transfection in COS-7 cells and used as cell lysate; The construct came from Dr. Colin S. Duckett; also called myc-tagged XIAP; mycXIAP
Description: immunofluorescence co-localization by confocal microscopy in COS-7 cells transfected with AU5-ARTS and pcDNA3-Myc-XIAP, treated with etoposide. On the procedure: FIG. 5. ARTS and XIAP co-localize during apoptosis. Immunofluorescence assay of COS-7 cells with anti-ARTS antibody (left column) and anti-XIAP antibody (second column from left). Nuclei are stained with Dapi (third column from left). Merged images are shown in the right column. Cells were untreated (top panel) or treated with […] etoposide for 2 hours (middle panel) or 16 hours (lower panel). Cells were analyzed using confocal microscopy (magnification 60). Non-apoptotic cells had very little overlap between ARTS and XIAP staining (top panel), with ARTS primarily localized to mitochondria and XIAP staining cytoplasmic, with some peri-nuclear concentration. Two hours after induction of apoptosis, co-localization of ARTS and XIAP occurred primarily near the nucleus (middle panel). After 16 hr both proteins perfectly co-localized in the nucleus.
To confirm the finding that ARTS-XIAP complexes exist in apoptotic cells, COS-7 cells transfected with AU5-ARTS and pcDNA3-Myc-XIAP were visualized by confocal microscopy. Apoptosis was induced with etoposide, and cells were stained after 2 and 16 hours. In non-apoptotic cells, ARTS and XIAP had distinct, essentially non-overlapping distributions, with ARTS primarily localized to mitochondria, whereas XIAP was localized to the cytoplasm, with some peri-nuclear concentration (FIG. 5, top panel). […]

The subject of a further assay is A549 cells. Description: Caspase 3 activity assay in ARTS-transfected A549 cells. Format: cell-based. On the procedure:
as §1

T1 sequence (P98170 whole entry): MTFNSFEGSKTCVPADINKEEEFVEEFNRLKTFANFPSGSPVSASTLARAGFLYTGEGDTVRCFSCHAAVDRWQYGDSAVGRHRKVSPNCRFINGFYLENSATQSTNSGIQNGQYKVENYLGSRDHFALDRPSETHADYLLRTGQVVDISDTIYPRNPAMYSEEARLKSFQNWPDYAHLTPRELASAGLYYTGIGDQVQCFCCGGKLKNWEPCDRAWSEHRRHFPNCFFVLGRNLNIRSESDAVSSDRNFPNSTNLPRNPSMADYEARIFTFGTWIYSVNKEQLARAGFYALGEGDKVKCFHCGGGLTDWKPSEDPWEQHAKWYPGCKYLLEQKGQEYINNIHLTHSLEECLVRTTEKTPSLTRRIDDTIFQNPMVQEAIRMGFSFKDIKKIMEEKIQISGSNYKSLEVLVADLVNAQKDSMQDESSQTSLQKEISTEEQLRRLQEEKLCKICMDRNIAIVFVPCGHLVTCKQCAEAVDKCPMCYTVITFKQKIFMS

B1: AU5-ARTS (other)
chain: MIKRFLEDTTDDGELSKFVKDFSGNASCHPPEAKTWASRPQVPEPRPQAPDLYDDDLEFRPPSRPQSSDNQQYFCAPAPLSPSARPRSPWGKLDPYDSSEDDKEYVGFATLPNQVHRKSVKKGFDFTLMVAGESGLGKSTLVNSLFLTDLYRDRKLLGAEERIMQTVEITKHAVDIEEKGVRLRLTIVDTPGFGDAVNNTECWKPVAEYIDQQFEQYFRDESGLNRKNIQDNRVHCCLYFISPFGHGYGPSLRLLAPPGAVKGTGQEHQGQGCH
notes: Expressed in transfected COS-7 cells and used as lysate or stained in cells; also called pEF1-AU5-ARTS; AU5-tagged ARTS; not shown: AU5 tag attached to the N' terminus of ARTS
As to B1, the “interaction with CIAP” value with CIAP is reported as “interact with ARTS”. The caspase-3 activity entry is “increased caspase-3 activity” in the assay on HL-60 cells (expression of ARTS in the absence of pro-apoptotic stimuli, HL-60 cells); “increased caspase-3 activity” in the assay on HL-60 cells (over-expression of ARTS, HL-60 cells treated with ara-C); “little or no effect” in the assay on COS-7 cells [3] (expression of ARTS in the absence of pro-apoptotic stimuli, COS-7 cells); “increased caspase-3 activity” in the assay with COS-7 cells [3] (over-expression of ARTS, COS-7 cells treated with etoposide); “little or no effect” with A549 cells (expression of ARTS in the absence of pro-apoptotic stimuli, A549 cells); “increased caspase-3 activity” in the assay with A549 cells (over-expression of ARTS, A549 cells treated with TGF-β). For the same molecule, in the assay with COS-7 cells [1], the “XIAP staining in the nucleus” value was “significantly higher levels in the nucleus”. In addition, the “apoptotic marker H2A.X” value with COS-7 cells [2] is on record as “high levels of the apoptotic marker H2A.X”. The binding result in assay [4] is given as “binds”.
